According to patent publication US20210079080A1 (Hoffmann-La Roche, published 2021):
Substitutions are numbered along the chain they refer to.

T1: VEGF-121-His (inhouse production) (human, UniProt P15692 207-395)
T1 construct: His-tagged human VEGF-A121 used in the ELISAs and (captured by an anti-His antibody) in SPR; also called hVEGF-A121; his VEGF; not shown: His tag
T1 sequence: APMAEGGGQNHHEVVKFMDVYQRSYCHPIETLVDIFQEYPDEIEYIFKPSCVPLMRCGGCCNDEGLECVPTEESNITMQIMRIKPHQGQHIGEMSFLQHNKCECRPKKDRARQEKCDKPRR

T2: human VEGF-A121 (human, UniProt P15692 207-395)
T2 sequence: T1 sequence

B1: HF2-1 Fab fragment (Fab, V domains shown)
VH: EVQLVESGGGLVQPGGSLRLSCAASNFVFRSHGMQWVRQAPGKGLEYVAGISSDGSWTGYGAAVEGRFTISRDDSKNTAYLQMNSLRAEDTAVYYCARDFSTGYGADSIDAWGQGTLVTVSS
VL: DIQMTQSPSSLSASVGDRVTITCSGGSDSAYGYGWYQQKPGKAPKTLIYWDDKRPSGVPSRFSGSRSGTDFTLTISSLQPEDFATYYCGAWEYSGGVGIFGQGTKVEIKR
notes: Prior art antibody disclosed in EP3006465
B2: HF2-11 Fab fragment (Fab, V domains shown)
VH: B1 VH with N26G, V28L, F29I, T58V, G59K, Y60V, G61A
VL: B1 VL with D28S, S29E, A30P, Y31L
notes: as for B1
B3: HF2-9 Fab fragment (Fab, V domains shown)
VH: B1 VH with N26M, V28R, F29I, T58F, G59R, Y60V, G61A
VL: B1 VL with D28M, S29E, A30P, Y31L
notes: as for B1
B4: L3H6 Fab fragment (Fab, V domains shown)
VH: QVQLVQSGAEVKKPGESLKISCKGSGYSFTSYWIGWVRQMPGKGLEWMGIIYPGDSDTRYSPSFQGQVTISADKSISTAYLQWSSLKASDTAMYYCARQGTHNRKIWGQGTMVTVSS
VL: QAVVTQEPSLTVSPGGTVTLTCASSTGAVTSGNYPNWFQQRPGQPPRALIYSTSNKHSWTPARFSGSLLGGKAALTLSGAQPEDEAEYYCRLSYDLARPVFGGGTKLTVLG
notes: Prior art antibody disclosed in WO 2012089176, made here as Fab
B5: VEGF-0113 Fab fragment (Fab, V domains shown)
VH: EVQLVESGGGLVQPGGSLRLSCAASGFTFTNYAMTWVRQAPGKGLEWVSSIGNGPGIYTYYADSVKGRFTISRDNSKNTLYLQMNSLRAEDTAVYYCAKGDNLFDSWGPGTLVTVSS
VL: DIQMTQSPASLSASVGDRVTITCRASQSIYSSLNWYQQKPGKAPKLLIYASTLQSGVPSRFSGSASGTDFTLTISSLQPEDVATYYCQQYQNFPRTFGQGTKLEIKR
notes: Variant of VEGF-0089 (G to P at position 6 of H-CDR2); Fab with rabbit derived CLkappa and CH1
B6: VEGF-0114 Fab fragment (Fab, V domains shown)
VH: EVQLVESGGGLVQPGGSLRLSCAASGFTFTNYAMTWVRQAPGKGLEWVSSIGSGGFYTYYADSVKGRFTISRDNSKNTLYLQMNSLRAEDTAVYYCAKGDNLFDSWGPGTLVTVSS
VL: B5 VL
notes: Fab with rabbit derived CLkappa and CH1; also called VEGR-0114 Fab
B7: VEGF-P1AD8675 Fab fragment (Fab, V domains shown)
VH: B5 VH with P55G, S76W
VL: B5 VL
B8: VEGF-P1AE3521 Fab fragment (Fab, V domains shown)
VH: B6 VH with S75W
VL: B5 VL
B9: VEGF-P1AE3520 Fab fragment (Fab, V domains shown)
VH: B5 VH with S76W
VL: B5 VL
B10: r84 full length IgG1 antibody (antibody, V domains shown)
VH: QVQLVQSGAEVKKPGASVKVSCKASGGTFSSYAISWVRQAPGQGLEWMGGFDPEDGETIYAQKFQGRVTMTEDTSTDTAYMELSSLRSEDTAVYYCATGRSMVRGVIIPFNGMDVWGQGTTVTVSS
VL: not shown
notes: Full length IgG1; also called r84 IgG1
B11: r84 Fab fragment (Fab, V domains shown)
VH: B10 VH
VL: not shown
notes: Prior art antibody disclosed in WO 2009060198, made here as Fab

Experiments:
[1] = molecular target: T1, VEGF-121-His (inhouse production); experiment: SPR (Biacore), hVEGF-A121 captured by anti-His antibody, Fab injected, 37° C
Method: (§1) The surface was regenerated by injecting 10 mM Glycine pH 1.5 for 60s. […] Rate constants were calculated using the Langmuir 1:1 binding model within the Biacore® Evaluation software.
(§2) The affinity of the antibodies was determined by SPR using the same methods as described in Example 2. All Fab fragments of antibodies of the invention as listed in table 1 and table 5 were tested.

[2] = molecular target: T1, VEGF-121-His (inhouse production); experiment: SPR (Biacore), hVEGF-A121 captured by anti-His antibody, Fab injected, 25° C
Method: as §1, §2

[3] = molecular target: T1, VEGF-121-His (inhouse production); experiment: inhibition ELISA: antibody titrated against 0.7 nM VEGF-121-His; blocked partner plate-bound biotinylated VEGF-R1; anti-His POD readout
[4] = molecular target: T1, VEGF-121-His (inhouse production); experiment: direct ELISA on plate-coated VEGF-121-His
Method: After washing 3 times with 90 μl/well PBST-buffer (bidest water, 10×PBS Roche #11666789001+0.1% Tween® 20) blocking buffer (bidest water, 10×PBS Roche #11666789001+2% Bovine Serum Albumin Fraction V, fatty acid free, Roche, #10735078001+0.05% Tween® 20) was added 90 μl/well and incubated for 1 h at room temperature. […] After incubation for 1 h at room temperature, plates were again washed 3 times with 90 μl/well PBST-buffer. […] After washing 3 times with 90 μl A PBST-buffer, 25 μl TMB (Roche, #11 835 033 001) was added to each well. After 3 min incubation at RT, signals were detected at 370 nm/492 nm on a Tecan Safire 2 Reader.

[5] = molecular target: T1, VEGF-121-His (inhouse production); experiment: SPR (Biacore), hVEGF-A121 captured by anti-His antibody, Fab injected, 37° C; remark: listed apart in the source
Method: as §1
(§3) The affinity of the antibodies was determined by SPR using the same methods as described in Example 2. All Fab fragments as listed in table 1 and table 2 were tested.

[6] = molecular target: T1, VEGF-121-His (inhouse production); experiment: SPR (Biacore), hVEGF-A121 captured by anti-His antibody, Fab injected, 25° C; remark: listed apart in the source
Method: as §1, §3

[7] = molecular target: T1, VEGF-121-His (inhouse production); experiment: Biacore, Fab stressed 2 w/37° C./pH 7.4
Method: (§4) Antibody samples were formulated in 20 mM His/HisCl, 140 mM NaCl, pH 6.0, and were split into three aliquots: one aliquot was re-buffered into PBS, respectively, and two aliquots were kept in the original formulation. The PBS aliquot and one His/HisCl aliquot were incubated for 2 weeks (2 w) at 40° C. (His/NaCl) or 37° C. (PBS) in 1 mg/ml, the PBS sample was incubated further for total 4 weeks (4 w). The third control aliquot sample was stored at −80° C.

[8] = molecular target: T1, VEGF-121-His (inhouse production); experiment: inhibition ELISA: antibody titrated against 0.7 nM VEGF-121-His; blocked partner plate-bound biotinylated VEGF-R2; anti-His POD readout
Method: Plates were incubated for 1 h at room temperature. […] Plates were incubated for 1 h at room temperature. […] After washing 3 times with 90 μl/well PB ST-buffer, 25 μl/well detection antibody (anti His POD, Bethyl, #A190-114P, 1:12000) in 1×OSEP was added. After incubation for 1 h at room temperature plates were washed 3 times with 90 μl PBST-buffer. 25 μl TMB (Roche, #11 835 033 001) was added to all wells simultaneously. After 10 min incubation at room temperature, signals were detected at 370 nm/492 nm on a Tecan Safire 2 Reader.

[9] = molecular target: T1, VEGF-121-His (inhouse production); experiment: Biacore, Fab stressed 2 w/40° C./pH 6.0
Method: as §4

[10] = molecular target: T1, VEGF-121-His (inhouse production); experiment: Biacore, Fab stressed 4 w/37° C./pH 7.4
Method: as §4

[11] = molecular target: T1, VEGF-121-His (inhouse production); experiment: inhibition ELISA: antibody titrated against 0.4 nM VEGF-121-His; blocked partner plate-bound biotinylated VEGF-R2; anti-His POD readout
human VEGF-A121 = molecular target: T2, human VEGF-A121; experiment: cell-based or functional assay

| Binder | Kd [1] [nM] | Kd [2] [nM] | VEGF-binding activity after stress (relative active concentration, normalized to unstressed aliquot) [7] | VEGF-binding activity after stress (relative active concentration, normalized to unstressed aliquot) [9] | VEGF-binding activity after stress (relative active concentration, normalized to unstressed aliquot) [10] | also measured |
| --- | --- | --- | --- | --- | --- | --- |
| B1 | 0.574 | 0.279 | – | – | – | – |
| B2 | 0.062 | 0.032 | – | – | – | IC50 (read off the curve) [3]: ~1 nM |
| B3 | 0.051 | 0.024 | – | – | – | IC50 (read off the curve) [3]: ~0.7 nM |
| B4 | – | – | – | – | – | EC50 (read off the curve) [4]: ~0.3 nM; Kd [5]: 4.52 nM; Kd [6]: 3.36 nM |
| B5 | 0.029 | 0.022 | 103 | 103 | 101 | IC50 (read off the curve) [8]: ~2 nM; EC50 (read off the curve) [4]: ~0.3 nM; Kd [5]: 0.017 nM; Kd [6]: 0.021 nM; IC50 (read off the curve) [11]: ~0.2 nM; IC50 in reporter gene assay (HEK293-NFAT-RE-Luc2P/KDR cells, luminescence, 25 ng/ml VEGF-A121) (human VEGF-A121): 0.63 nM |
| B6 | 0.054 | 0.05 | 102 | 99 | 99 | EC50 (read off the curve) [4]: ~0.3 nM; Kd [5]: 0.056 nM; Kd [6]: 0.055 nM; IC50 (read off the curve) [11]: ~0.3 nM; IC50 in reporter gene assay (HEK293-NFAT-RE-Luc2P/KDR cells, luminescence, 25 ng/ml VEGF-A121) (human VEGF-A121): 1.34 nM |
| B7 | 0.065 | 0.088 | 102 | 101 | 109 | – |
| B8 | 0.061 | 0.032 | 103 | 101 | 99 | – |
| B9 | 0.039 | 0.031 | 102 | 100 | 101 | – |
| B10 | – | – | – | – | – | binding result [4]: binds |
| B11 | – | – | – | – | – | binding result [4]: binds |
